Laboratory results: patent US11702475B2, “Cysteine engineered fibronectin type III domain binding molecules” (Janssen Biotech, Inc., priority 2013, dated 2023)
Numbering of substitutions follows the chain as printed.

B1: L7C (conjugate)
chain: LPAPKNCVVSEVTEDSARLSWDDPWAFYESFLIQYQESEKVGEAIVLTVPGSERSYDLTGLKPGTEYTVSIYGVHNVYKDTNMRGLPLSAIFTT
modifications: left off: small tags and cut ends
B2: S55C (conjugate)
chain: B1 chain with C7L, S55C
modifications: left off: small tags and cut ends
B3: V77C (conjugate)
chain: B1 chain with C7L, V77C
modifications: left off: small tags and cut ends
B4: T81C (conjugate)
chain: B1 chain with C7L, T81C
modifications: left off: small tags and cut ends
B5: F31C (conjugate)
chain: B1 chain with C7L, F31C
modifications: left off: small tags and cut ends
B6: N82C (conjugate)
chain: B1 chain with C7L, N82C
modifications: left off: small tags and cut ends
B7: A3C (conjugate)
chain: B1 chain with A3C, C7L
modifications: left off: small tags and cut ends
B8: A26C (conjugate)
chain: B1 chain with C7L, A26C
modifications: left off: small tags and cut ends
B9: D23C (conjugate)
chain: B1 chain with C7L, D23C
modifications: left off: small tags and cut ends
B10: R84C (conjugate)
chain: B1 chain with C7L, R84C
modifications: left off: small tags and cut ends
B11: P2C (conjugate)
chain: B1 chain with P2C, C7L
modifications: left off: small tags and cut ends
B12: G85C (conjugate)
chain: B1 chain with C7L, G85C
modifications: left off: small tags and cut ends
B13: F27C (conjugate)
chain: B1 chain with C7L, F27C
modifications: left off: small tags and cut ends
B14: N76C (conjugate)
chain: B1 chain with C7L, N76C
modifications: left off: small tags and cut ends
B15: H75C (conjugate)
chain: B1 chain with C7L, H75C
modifications: left off: small tags and cut ends
B16: Y28C (conjugate)
chain: B1 chain with C7L, Y28C
modifications: left off: small tags and cut ends
B17: S52C (conjugate)
chain: B1 chain with C7L, S52C
modifications: left off: small tags and cut ends
B18: E29C (conjugate)
chain: B1 chain with C7L, E29C
modifications: left off: small tags and cut ends
B19: V9C (conjugate)
chain: B1 chain with C7L, V9C
modifications: left off: small tags and cut ends
B20: G73C (conjugate)
chain: B1 chain with C7L, G73C
modifications: left off: small tags and cut ends
B21: R18C (conjugate)
chain: B1 chain with C7L, R18C
modifications: left off: small tags and cut ends
B22: K5C (conjugate)
chain: B1 chain with K5C, C7L
modifications: left off: small tags and cut ends
B23: P4C (conjugate)
chain: B1 chain with P4C, C7L
modifications: left off: small tags and cut ends
B24: V12C (conjugate)
chain: B1 chain with C7L, V12C
modifications: left off: small tags and cut ends
B25: T13C (conjugate)
chain: B1 chain with C7L, T13C
modifications: left off: small tags and cut ends
B26: Y78C (conjugate)
chain: B1 chain with C7L, Y78C
modifications: left off: small tags and cut ends
B27: V49C (conjugate)
chain: B1 chain with C7L, V49C
modifications: left off: small tags and cut ends
B28: M83C (conjugate)
chain: B1 chain with C7L, M83C
modifications: left off: small tags and cut ends
B29: P24C (conjugate)
chain: B1 chain with C7L, P24C
modifications: left off: small tags and cut ends
B30: E43C (conjugate)
chain: B1 chain with C7L, E43C
modifications: left off: small tags and cut ends
B31: G42C (conjugate)
chain: B1 chain with C7L, G42C
modifications: left off: small tags and cut ends
B32: E39C (conjugate)
chain: B1 chain with C7L, E39C
modifications: left off: small tags and cut ends
B33: V46C (conjugate)
chain: B1 chain with C7L, V46C
modifications: left off: small tags and cut ends
B34: W25C (conjugate)
chain: B1 chain with C7L, W25C
modifications: left off: small tags and cut ends
B35: P87C (conjugate)
chain: B1 chain with C7L, P87C
modifications: left off: small tags and cut ends
B36: D22C (conjugate)
chain: B1 chain with C7L, D22C
modifications: left off: small tags and cut ends
B37: L86C (conjugate)
chain: B1 chain with C7L, L86C
modifications: left off: small tags and cut ends
B38: K79C (conjugate)
chain: B1 chain with C7L, K79C
modifications: left off: small tags and cut ends
B39: D80C (conjugate)
chain: B1 chain with C7L, D80C
modifications: left off: small tags and cut ends

Assays:
[1] = Analytical size exclusion chromatography (percent monomer); type: physicochemical; conditions: NEM-conjugated cysteine variants; SEC, Abs280 monomer region 5.5-6 minutes vs oligomer region 4-5.3 minutes
Experimental: Size exclusion chromatography was used to determine the aggregation state of the FN3 domains binding EGFR. Aliquots (10 μL) of each purified FN3 domain were injected onto a Superdex 75 5/150 column (GE Healthcare) at a flow rate of 0.3 mL/min in a mobile phase of PBS pH 7.4. Elution from the column was monitored by absorbance at 280 nm.
The percent monomer for each protein was determined by integrating the Abs280 signal and comparing the peak in the monomer region (5.5-6 minutes) to the peaks in the oligomer region (4-5.3 minutes).

[2] = Thermal stability of cysteine-NEM conjugates by DSC; type: physicochemical; conditions: for First Scan Tm: DSC 25-100 °C, 1 °C per minute; for Second Scan Tm: second identical scan
Experimental: The thermal stability of cysteine-NEM conjugates was assessed by differential scanning calorimetry (DSC). The only the conjugates tested were those determined to express at high levels, conjugate efficiently, and retain EGFR binding. Additionally, cysteine variants within the BC and FG loops were excluded. Stability data was generated by heating a 400 μL aliquot of the variant from 25° C. to 100° C. at a scan rate of 1° C. per minute in a VP-DSC instrument (MicroCal). A second identical scan was completed on the sample in order to assess the reversibility of thermal folding/unfolding. Data was fitted to a 2-state unfolding model in order to calculate the melting temperature (Table 10).

Row | Molecule | Percent monomer [1] | First Scan Tm [2] | Second Scan Tm [2]
1 | B1 | 93% |  | 
2 | B2 | 100% |  | 
3 | B3 | 92% |  | 
4 | B4 | 86% |  | 
5 | B5 | 57% |  | 
6 | B6 | 100% |  | 
7 | B7 | 100% |  | 
8 | B8 | 95% |  | 
9 | B9 | 100% |  | 
10 | B10 | 100% |  | 
11 | B11 | 86% |  | 
12 | B12 | 95% |  | 
13 | B13 | 97% |  | 
14 | B14 | 94% |  | 
15 | B15 | 100% |  | 
16 | B16 | 92% |  | 
17 | B17 | 100% |  | 
18 | B18 | 85% | 63 °C | 66 °C
19 | B19 | double peak | 46 °C | 46 °C
20 | B20 | 66% |  | 

Row | Molecule | Percent monomer [1] | First Scan Tm [2] | Second Scan Tm [2]
21 | B21 | 93% | 62 °C | 62 °C
22 | B22 | 100% |  | 
23 | B23 | 100% |  | 
24 | B24 | 66% | 58 °C | 58 °C
25 | B25 | 82% | 63 °C | 63 °C
26 | B26 | 90% |  | 
27 | B27 | 88% | 54 °C | 55 °C
28 | B28 | 91% |  | 
29 | B29 | 88% |  | 
30 | B30 | 100% |  | 
31 | B31 | 87% | 65 °C | 67 °C
32 | B32 | 100% | 67 °C | 69 °C
33 | B33 | 100% |  | 
34 | B34 | 76% |  | 
35 | B35 | 98% |  | 
36 | B36 | 85% |  | 
37 | B37 | 83% |  | 
38 | B38 | 100% |  | 
39 | B39 | 79% |  | 
